Experimental data reported in patent US20100226974A1 (MITSUBISHI PHARMA, published 2010).

Biological target: T1, human non-muscular myosin heavy chain type A (human, UniProt P35579 2-1960)
T1 construct: also called nmMHCA; human non-muscular myosin A chain
Test: flow cytometry, FITC-labeled antibody at 20 ug/ml on intact MKN45 cells, mean channel number of FL1
Experimental: Cultured cells of MKN45 or cells of a solid tumor (hereinafter referred to as “tumor cells”) formed by subcutaneous transplantation of MKN45 were allowed to react with the GAH antibody described in EP-A-520499 and EP-A-1174126, which had been labeled with fluorescein isothiocyanate (FITC: Sigma), in a concentration of 20 μg/ml at 4° C. for 1 hour, and then washed once with phosphate buffered saline (PBS). Analysis was carried out in PBS containing propidium iodide (PI: Sigma) using a flow cytometer (FACScan: Becton Dickinson). PI-positive cells, namely dead cells, were excluded from the subject of analysis by gating operation. By calculating the mean channel number of FL1 as an index of FITC fluorescence intensity, comparison of the cultured cells and tumor cells of MKN45 was carried out.

T1 sequence (P35579 2-1960 limits assumed): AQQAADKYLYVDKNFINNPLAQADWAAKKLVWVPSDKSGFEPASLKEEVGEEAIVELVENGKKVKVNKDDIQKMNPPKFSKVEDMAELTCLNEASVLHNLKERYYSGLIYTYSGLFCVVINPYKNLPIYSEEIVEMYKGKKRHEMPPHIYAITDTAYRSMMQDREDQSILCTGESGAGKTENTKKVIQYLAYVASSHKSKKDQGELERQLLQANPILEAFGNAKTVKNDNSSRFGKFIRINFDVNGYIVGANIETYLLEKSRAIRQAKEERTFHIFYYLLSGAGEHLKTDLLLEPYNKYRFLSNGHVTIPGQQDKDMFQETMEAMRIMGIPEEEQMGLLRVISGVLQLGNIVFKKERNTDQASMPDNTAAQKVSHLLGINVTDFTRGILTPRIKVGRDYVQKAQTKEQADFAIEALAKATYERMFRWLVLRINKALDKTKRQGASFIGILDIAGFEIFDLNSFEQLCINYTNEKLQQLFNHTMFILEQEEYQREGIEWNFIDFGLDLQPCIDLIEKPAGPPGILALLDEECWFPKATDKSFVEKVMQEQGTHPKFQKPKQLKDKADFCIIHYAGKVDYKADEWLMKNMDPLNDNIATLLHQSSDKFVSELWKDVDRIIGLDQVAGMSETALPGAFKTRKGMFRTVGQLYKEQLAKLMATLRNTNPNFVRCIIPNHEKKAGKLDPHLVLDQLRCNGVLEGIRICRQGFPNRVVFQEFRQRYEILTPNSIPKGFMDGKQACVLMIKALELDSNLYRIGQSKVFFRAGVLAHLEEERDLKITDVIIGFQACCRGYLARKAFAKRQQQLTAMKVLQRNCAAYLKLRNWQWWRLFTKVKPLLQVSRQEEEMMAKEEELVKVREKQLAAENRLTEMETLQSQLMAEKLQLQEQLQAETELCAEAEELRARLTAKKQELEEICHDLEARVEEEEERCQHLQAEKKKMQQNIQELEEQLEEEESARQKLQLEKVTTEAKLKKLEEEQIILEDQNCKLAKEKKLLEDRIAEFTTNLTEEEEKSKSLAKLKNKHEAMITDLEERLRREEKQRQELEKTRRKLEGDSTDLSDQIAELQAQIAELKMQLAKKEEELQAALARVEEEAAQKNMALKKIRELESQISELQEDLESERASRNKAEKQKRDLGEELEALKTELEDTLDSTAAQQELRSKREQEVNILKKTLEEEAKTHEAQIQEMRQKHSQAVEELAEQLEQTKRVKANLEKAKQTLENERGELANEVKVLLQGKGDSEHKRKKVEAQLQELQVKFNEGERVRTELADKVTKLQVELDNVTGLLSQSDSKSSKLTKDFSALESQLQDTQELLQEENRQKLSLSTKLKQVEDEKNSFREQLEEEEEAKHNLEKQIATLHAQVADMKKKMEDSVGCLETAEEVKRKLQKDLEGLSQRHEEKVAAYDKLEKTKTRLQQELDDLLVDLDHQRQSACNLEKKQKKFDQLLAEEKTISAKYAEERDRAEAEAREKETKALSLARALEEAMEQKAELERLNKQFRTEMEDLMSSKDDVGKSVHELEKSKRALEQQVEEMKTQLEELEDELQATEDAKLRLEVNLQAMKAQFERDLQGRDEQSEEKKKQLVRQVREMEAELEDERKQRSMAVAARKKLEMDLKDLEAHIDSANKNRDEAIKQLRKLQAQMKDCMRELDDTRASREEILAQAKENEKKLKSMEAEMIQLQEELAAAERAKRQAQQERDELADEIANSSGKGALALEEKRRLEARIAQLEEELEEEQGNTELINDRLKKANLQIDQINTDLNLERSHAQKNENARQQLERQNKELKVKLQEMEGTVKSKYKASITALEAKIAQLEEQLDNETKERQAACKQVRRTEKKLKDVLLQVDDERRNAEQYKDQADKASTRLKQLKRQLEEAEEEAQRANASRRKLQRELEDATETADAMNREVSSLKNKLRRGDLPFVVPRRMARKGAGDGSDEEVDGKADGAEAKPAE

B1: GAH antibody (human monoclonal antibody disclosed in EP-A-520499) (antibody, V domains shown)
VH: QVQLQESGPGLVKPSQTLSLTCTVSGGSISSCGFYWNWIRQHPGKGLEWIGYIYYSGSTYYNPSLKSRVTISLDTSKSQFSLKLSSLTAADTAVYYCARSTRLRGADYWGQGTMVTVSS
VL: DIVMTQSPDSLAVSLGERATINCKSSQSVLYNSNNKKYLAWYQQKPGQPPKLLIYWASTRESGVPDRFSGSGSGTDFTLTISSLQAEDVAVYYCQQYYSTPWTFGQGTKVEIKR
With B1 the “fold reactivity, tumor cells against cultured cells of MKN45” value was about 18 times.
